In patent US20250084172A1 (23ANDME, published 2025):

B5: human soluble ULBP6 haplotype 02 (hULBP6_02) (ligand)
chain: RRDDPHSLCYDITVIPKFRPGPRWCAVQGQVDEKTFLHYDCGNKTVTPVSPLGKKLNVTTAWKAQNPVLREVVDILTEQLLDIQLENYTPKEPLTLQARMSCEQKAEGHSSGSWQFSIDGQTFLLFDSEKRMWTTVHPGARKMKEKWENDKDVAMSFHYISMGDCIGWLEDFLMGMDSTLEPSAGAPLAMSSG
notes: also called sULBP6_02
B6: human soluble ULBP6 haplotype 01 (hULBP6_01) (ligand)
chain: GRDDPHSLCYDITVIPKFRPGPRWCAVQGQVDEKTFLHYDCGNKTVTPVSPLGKKLNVTTAWKAQNPVLREVVDILTEQLRDIQLENYTPKEPLTLQARMSCEQKAEGHSSGSWQFSIDGQIFLLFDSEKRMWTTVHPGARKMKEKWENDKDVAMSFHYISMGDCIGWLEDFLMGMDSTLEPSAGAPLAMSSG
notes: also called sULBP6_01

Legend:
[1] = target: T1, cynomolgus soluble ULBP2/6 (cULBP2/6) (cynomolgus, UniProt Q5VY80 28-217 (human entry), limits assumed); test: BLI (OCTET), mouse antibody captured from hybridoma supernatant on AMC biosensor, 300 nM cULBP2/6
T1 construct: also called cyno ULBP6; Cyno-cULBP2/6
T1 chain: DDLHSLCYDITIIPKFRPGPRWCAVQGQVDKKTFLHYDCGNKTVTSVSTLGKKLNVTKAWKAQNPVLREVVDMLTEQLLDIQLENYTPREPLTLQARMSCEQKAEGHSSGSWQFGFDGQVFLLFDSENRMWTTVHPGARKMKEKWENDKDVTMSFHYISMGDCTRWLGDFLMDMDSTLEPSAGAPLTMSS

[2] = target: B6; test: blocking ELISA; hNKG2D coated, antibody titrated with biotinylated hULBP6_01
[3] = target: B5; test: SPR (BIACORE);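 note: soluble human and cynomolgus NKG2D ligands injected as analytes in 3-fold dilution series spanning 0.01 to 50 nM at 37 °C, reference-subtracted sensorgrams fitted to a 1:1 Langmuir model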
[4] = target: T1, cynomolgus soluble ULBP2/6 (cULBP2/6); test: SPR (BIACORE);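 note: soluble human and cynomolgus NKG2D ligands injected as analytes in 3-fold dilution series spanning 0.01 to 50 nM at 37 °C, reference-subtracted sensorgrams fitted to a 1:1 Langmuir model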
[5] = target: T2, human soluble ULBP2 (hULBP2) (human, UniProt Q9BZM5 26-216); test: SPR (BIACORE);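 note: soluble human and cynomolgus NKG2D ligands injected as analytes in 3-fold dilution series spanning 0.01 to 50 nM at 37 °C, reference-subtracted sensorgrams fitted to a 1:1 Langmuir model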
T2 construct: also called sULBP2
T2 sequence: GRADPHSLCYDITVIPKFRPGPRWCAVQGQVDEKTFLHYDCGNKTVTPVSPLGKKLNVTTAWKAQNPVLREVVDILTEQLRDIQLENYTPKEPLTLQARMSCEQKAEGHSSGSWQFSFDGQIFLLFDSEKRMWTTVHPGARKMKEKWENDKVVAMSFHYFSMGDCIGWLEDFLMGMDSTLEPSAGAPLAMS

[6] = target: B6; test: SPR (BIACORE);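 note: soluble human and cynomolgus NKG2D ligands injected as analytes in 3-fold dilution series spanning 0.01 to 50 nM at 37 °C, reference-subtracted sensorgrams fitted to a 1:1 Langmuir model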
[7] = target: T3, cynomolgus soluble ULBP5 (cULBP5) (cynomolgus); test: SPR (BIACORE)
T3 construct: also called Cyno-cULBP5
T3 chain: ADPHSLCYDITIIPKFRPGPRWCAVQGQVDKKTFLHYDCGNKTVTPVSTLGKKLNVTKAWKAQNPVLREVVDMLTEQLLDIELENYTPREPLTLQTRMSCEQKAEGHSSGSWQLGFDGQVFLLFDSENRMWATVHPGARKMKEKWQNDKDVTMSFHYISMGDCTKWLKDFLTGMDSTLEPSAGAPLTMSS

[8] = target: T4, human soluble ULBP5 (hULBP5) (human, UniProt Q6H3X3 26-218); test: SPR (BIACORE)
T4 construct: also called sULBP5
T4 sequence: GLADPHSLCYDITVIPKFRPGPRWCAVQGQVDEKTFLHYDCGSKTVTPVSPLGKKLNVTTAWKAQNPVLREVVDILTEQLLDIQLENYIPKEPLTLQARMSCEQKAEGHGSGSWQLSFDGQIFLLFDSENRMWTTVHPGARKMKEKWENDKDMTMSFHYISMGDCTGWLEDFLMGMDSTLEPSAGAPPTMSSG

[9] = target: B5; test: blocking ELISA; hNKG2D coated, antibody titrated with biotinylated hULBP6_02; hNKG2D-hULBP6_02 interaction; value of the running text
[10] = target: B5; test: blocking ELISA; hNKG2D coated, antibody titrated with biotinylated hULBP6_02
[11] = target: B5; test: cell-based or functional assay
[12] = target: B6; test: blocking ELISA; hNKG2D coated, antibody titrated with biotinylated hULBP6_01; hNKG2D-hULBP6_01 interaction; value of the running text
[13] = target: T5, NKG2D on cells (NKG2D expressing cells, primed PBMCs) (UniProt P26718 1-216); test: competition with anti-NKG2D mAb on NKG2D expressing cells (data not shown)
T5 construct: whole, on cells; also called cell surface NKG2D
T5 sequence (looked up): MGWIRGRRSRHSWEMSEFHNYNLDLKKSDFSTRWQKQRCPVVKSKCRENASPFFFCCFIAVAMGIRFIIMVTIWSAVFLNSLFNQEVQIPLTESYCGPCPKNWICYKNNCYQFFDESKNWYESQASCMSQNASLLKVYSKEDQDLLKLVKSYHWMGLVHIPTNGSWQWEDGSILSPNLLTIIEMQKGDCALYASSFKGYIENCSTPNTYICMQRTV

[14] = target: hNKG2D-Fc (human NKG2D 78-216 with C-terminal long huFc-Flag tag) (human); test: SPR (BIACORE 8K, 37 C); hNKG2D-Fc captured on Protein A, soluble ligand injected
hNKG2D-Fc (human NKG2D 78-216 with C-terminal long huFc-Flag tag) (human), sequence (chain, as listed by the source limits assumed): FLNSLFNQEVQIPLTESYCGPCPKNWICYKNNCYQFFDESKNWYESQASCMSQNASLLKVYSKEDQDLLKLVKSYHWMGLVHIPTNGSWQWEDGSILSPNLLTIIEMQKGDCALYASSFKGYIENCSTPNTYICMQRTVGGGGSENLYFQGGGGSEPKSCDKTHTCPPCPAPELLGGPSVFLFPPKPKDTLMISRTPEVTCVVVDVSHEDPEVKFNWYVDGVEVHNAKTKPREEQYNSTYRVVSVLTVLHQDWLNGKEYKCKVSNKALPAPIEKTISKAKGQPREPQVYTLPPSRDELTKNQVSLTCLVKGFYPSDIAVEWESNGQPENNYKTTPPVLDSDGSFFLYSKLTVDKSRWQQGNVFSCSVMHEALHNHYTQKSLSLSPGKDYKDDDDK

B1: 7B3 (mouse hybridoma clone) (antibody, V domains shown)
VH: DVQLVESGGGLVKPGGSRKLSCAASGFTFSTYGFHWVRQVPEKGLEWVAYISSNSGTIDYADTVKGRFTISRDNAKNTLFLQMTSLRSEDTAMYYCARQGYGFDNWGQGTTLTVSS
VL: EILLTQSPAIIAASPGEKVTITCSASSRVSYMNWYQQKPGSSPKIWVYGISNLASGVPARFSGSGSGTSFSFTINSMEAEDVATYYCQQRSSHPLTFGAGTKLELK
notes: Tested as hybridoma culture supernatant; also called mAb 7B3
[1]
  binding result: binds

B2: Humanized 8E11 (h8E11) (E-) (antibody, human IgG1, kappa, N297G, V domains shown)
VH: EVQLVESGGGLVQPGGSLRLSCAASGFTFRTYGMHWVRQAPGKGLEWVAYISSGSGTIDYADTVKGRFTISRDNAKNSLYLQMNSLRAEDTAVYYCTRQTGAMDYWGQGTLVTVSS
VL: EIVLTQSPATLSLSPGERATLSCSASSSVSYMNWYQQKPGQSPRLWIYGISNLASGVPARFSGSGSGTDFTLTISSLEPEDFAVYYCQQRSSHPLTFGGGTKVEIKR
notes: hIgG1 with N297G (effector negative)
[2]
  IC50: 5.06 nM
[3]
  Kd: 0.28 nM
[4]
  Kd: 2.06 nM
[5]
  Kd: 0.5 nM
[6]
  Kd: 0.27 nM
[7]
  Kd: 23.1 nM
[8]
  Kd: 1.76 nM
[9]
  IC50: 1.59 nM
[10]
  IC50: 0.035 nM
[11]
  EC50 (read off the curve); NKG2D MFI on primed PBMCs of donor 1307 with 50 nM sULBP6_02: ~20 nM
[12]
  IC50: 4.32 nM

B3: 8E11 (mouse hybridoma clone) (antibody, V domains shown)
VH: DVQLVESGGGLVQPGGSRKLSCAASGFTFRTYGMHWVRQAPEKGLEWVAYISSGSGTIDYADTVKGRFTISRDNAKNTLFLQMTSLRSEDTAMYYCTRQTGAMDYWGQGTSVTVSS
VL: EILLTQSPAIIAASPGEKVTITCSASSSVSYMNWYQQKPGSSPKLWIYGISNLASGVPARFSGSGSGTSFSFTINSMEAEDVATYYCQQRSSHPLTFGAGTKLELK
notes: Tested as hybridoma culture supernatant
[1]
  binding result: binds

B4: Humanized 7B3 (h7B3) (E-) (antibody, human IgG1, kappa, N297G, V domains shown)
VH: EVQLVESGGGLVQPGGSLRLSCAASGFTFSTYGFHWVRQAPGKGLEWVAYISSNSGTIDYADTVKGRFTISRDNAKNSLYLQMNSLRAEDTAVYYCARQGYGFDNWGQGTTVTVSS
VL: DIQLTQSPSSLSASVGDRVTITCSASSRVSYMNWYQQKPGKSPKIWVYGISNLASGVPSRFSGSGSGTDFTFTISSLQPEDIATYYCQQRSSHPLTFGGGTKVEIKR
notes: as for B2
[2]
  IC50: 4.48 nM
[3]
  Kd: 0.2 nM
[4]
  Kd: 0.48 nM
[5]
  Kd: 0.54 nM
[6]
  Kd: 0.22 nM
[7]
  Kd: 7.67 nM
[8]
  Kd: 2.39 nM
[9]
  IC50: 1.52 nM
[10]
  IC50: 0.028 nM
[11]
  EC50 (read off the curve); NKG2D MFI on primed PBMCs of donor 1307 with 50 nM sULBP6_02: ~20 nM
[12]
  IC50: 4.47 nM

## B5
[13]
  binding result: binds
[14]
  Kd: 4.8 nM

## B6
[13]
  binding result: binds
[14]
  Kd: 41 nM
